Assays:
[1] = target: the molecule itself; test: cell-based or functional assay
[2] = target: the molecule itself; test: SEC; gel filtration on Superdex 200 10/300 GL, in the presence of FBP; similar protein concentrations and conditions for all proteins
[3] = target: the molecule itself; test: crystal structure; crystals grown at 18°C by hanging-drop vapor diffusion, protein 15-20 mg/mL, in the absence of FBP (malonate for K305Q, L-proline for Y105E)

Row | Protein | normalized kcat/Km of pyruvate kinase activity (PKM2^WT as standard) in the presence of FBP [1] | stoichiometry N [2] | stoichiometry N [3]
1 | PKM2^K305Q (acetylation mimic of K305) (enzyme) not shown | 0.2 relative to kcat/Km of PKM2^WT | 2 | 4
2 | PKM2^R399E (a dimeric mutant) (enzyme) not shown | – | – | 4
3 | PKM2^K422R (a patient-derived mutation) (enzyme) not shown | – | 4 | –
4 | PKM2^Y105E (phosphorylation mimic of Y105) (enzyme) not shown | – | – | 4

— article PMC4383751 (Protein & Cell, 2015)
